# Key:
# [1] = Plasma release study; type: in vitro ADME; conditions: 37° C.
# Procedure: The plasma was placed in a CO2 incubator at 3% CO2 at 42% relative humidity to reach a pH of 7.4.
# Gemcitabine HCl (28.5 mg) was dissolved in Milli Q water and the resulting stock solution transferred to a 5 mL volumetric flask and diluted to provide working standard solutions.
# The plasma release study was conducted by adding 1 mL of plasma (centrifuged and filtered) to 0.2 mL of dendrimer solution (approximately 2 mg/mL gemcitabine equivalent in miliQ water) for example dendrimers and a comparator. The mixtures were vortexed (30 sec) then incubated at 37° C. 5% CO2. At various timepoints aliquots (0.1 mL) were removed and added to ACN (0.2 mL). The resulting mixtures were vortexed (30 s), centrifuged (10 min, 4° C.), filtered and analysed by HPLC (C8 Xbridge, 3×100 mm, […], 0.4 mL/min., gradient: 5% ACN/H2O) (0-1 min), 5-80% ACN (1-7 min), 80% ACN (7-12 min), 80-5% ACN (12-13 min), 5% ACN (13-15 min), 100 mM ammonium formate buffer, column temperature 50° C., sample tray 4° C., 260 nm.
# [2] = system: OVCAR-3 (human Ovarian Carcinoma cell line) mouse xenograft; test: OVCAR-3 mouse xenograft, alone or with Carboplatin (Example 16); type: in vivo; conditions: 3 at 4 mg/kg and 6 mg/kg weekly; Carboplatin 40 mg/kg weekly in combination; 3 weeks i.v.
# Procedure: An OVCAR-3 (human Ovarian Carcinoma cell line) mouse xenograft cancer model was used to assess the anti-tumour efficacy properties of 3 alone or in combination with Carboplatin, compared to Gemcitabine, alone or in combination with Carboplatin. NSG Mice were inoculated and tumours sized as described above. On day twenty nine after implantation, mice with similar sized tumours (mean tumour volume 100 mm^3) were randomised into 10 groups of 10 animals. Gemcitabine and 3 were prepared as described above. DBLCarboplatin (Hospira) was dissolved in saline solution and further diluted in 5% glucose immediately prior to dosing.
# Gemcitabine was administered twice weekly and dendrimers and carboplatin were administered weekly for 3 weeks via tail vein i.v. injection, at 0.1 ml/10 g body weight.
# [3] = system: CAPAN-1 tumour xenografts; test: CAPAN-1 mouse xenograft, alone or with Abraxane or DEP-DTX (Examples 13a, 13b); type: in vivo
# Procedure: Mice were inoculated and tumours sized as described above. On day nineteen after implantation, mice with similar sized tumours (mean tumour volume 100 mm^3) were randomised into 7 groups of 10 animals. […] Abraxane® was dissolved in saline solution immediately prior to dosing.
# Abraxane®, gemcitabine and dendrimers were administered at days 1, 10, and 17 via tail vein i.v. injection, at 0.1 ml/10 g body weight.
# In an extension of Example 13a, two additional groups of mice were prepared and dosed to assess the anti-tumour efficacy properties of a taxane-dendrimer combined with a nucleoside analogue-dendrimer (e.g. 6). Mice were inoculated and tumours sized as described above.
# Dendrimers were administered weekly via tail vein i.v. injection, at 0.1 ml/10 g body weight for 3 weeks.
# All statistical analyses were performed using GraphPad Prism 8.1.
# [4] = Gemcitabine release from dendrimers in PBS; type: physicochemical; conditions: PBS pH 7.4, 37° C.
# Procedure: A study was carried out to determine the rate of gemcitabine release from dendrimer compounds in PBS and citrate buffer. Gemcitabine-conjugated dendrimers of the present disclosure, and a comparative example dendrimer, were each dissolved in PBS Buffer (2 mL, 10 mM, pH 7.4) or Citrate Buffer (2 mL, 0.1 M, pH 4.5) and held at 37° C. Samples were then analysed by injecting 5 μL of the solution on HPLC. At various time points, samples were analysed by HPLC. HPLC (C8 XBridge, 3×100 mm), gradient: 5% ACN/H2O (0-1 min), 5-80% ACN (1-7 min), 80% ACN (7-12 min), 80-5% ACN (12-13 min), 5% ACN (13-15 min), 243 nm, 10 mM ammonium formate buffer, 0.4 mL/min.
# [5] = system: H460 cells; test: alamarBlue viability assay, GI50; type: cell-based; conditions: 72 h, given in μM Gemcitabine
# Procedure: (§1) A study was carried out to determine the ability of example dendrimers to inhibit growth of cancer cell lines using an alamarBlue viability assay (Thermo Fisher, DAL1025).
# (§2) The cytotoxicity of compounds toward MDA-MB-231, A549, H460, BxPC3 and CAPAN-1 cells were evaluated for viability. Cells were seeded at a density of 1.2-5×10^3 cells, dependent on cell growth rate, in 96 well plates and incubated overnight. Cells were then treated with serial dilutions of test compositions for 72 h (MDA-MB-231, A549 and H460 lines) or 144 h (BxPC3 and CAPAN-1 lines). For cell viability analysis, 10% media volume of alamar Blue was added during the final 6-8 h of incubation. Reduction of alamarBlue in living cells yields a red fluorescent metabolite that can be read on a plate reader (560 nm excitation/610 nm emission.). Cell viability and subsequent GI50 values were was determined from the blank corrected dose-response curves, with 4-parameter nonlinear curve fit, in GraphPad Prism.
# [6] = system: BxPC3 cells; test: alamarBlue viability assay, GI50; type: cell-based; conditions: BxPC-3; 144 h; given in μM Gemcitabine
# Procedure: as §1, §2
# [7] = system: CAPAN-1 tumour xenografts; test: CAPAN-1 mouse xenograft, two conjugates (Example 14); type: in vivo; conditions: 3 at 6 mg/kg weekly, 6 at 5 mg/kg weekly, Gemcitabine 120 mg/kg twice weekly, 3 weeks i.v.
# Procedure: A CAPAN-1 (human pancreatic adenocarcinoma cell line) mouse xenograft pancreatic cancer model was used to assess the anti-tumour efficacy properties of 3 and 6. NSG (NOD-SCID Interleukin-2 receptor gamma chain null) mice were inoculated and tumours sized as described above. On day 24 after implantation, mice with similar sized tumours (mean tumour volume 100 mm^3) were randomised into four groups of 10 animals for each tumour type. Gemcitabine, 3 and 6 were prepared as described above.
# Gemcitabine was administered twice weekly and dendrimers were administered weekly for 3 weeks via tail vein i.v. injection, at 0.1 ml/10 g body weight.
substance,measurement,setting,value
"[BHA Lys][Lys]30[Lys]32 [Compound 3, [BHA Lys][Lys]30[Lys]32 [(α-NH-TDA-Gemcitabine)32 (ε-NHPEG˜2100)32]]",Human Plasma % release,[1]; 0 h,1.81%
same,Human Plasma % release,[1]; 2 h,3.73%
same,Human Plasma % release,[1]; 4 h,6.31%
same,Human Plasma % release,[1]; 6 h,17.74%
same,Human Plasma % release,[1]; 24 h,34.83%
same,Human Plasma % release,[1]; 30 h,37.86%
same,anti-tumour efficacy compared to other groups (FIG. 9),[2],more effective than Gemcitabine
same,anti-tumour efficacy compared to other groups at day 29,[3]; day 29,significantly more effective than Gemcitabine
same,Tumour Growth inhibition (%) v vehicle at day 29,"[3]; day 29, i.v., Gemcitabine 120, Abraxane 40, 3 at 6.5, 6 at 5 (day 1) then 4, DEP-DTX 24 (10 in combination) mg/kg",103%
same,anti-tumour efficacy compared to other groups over the dosing study (FIG. 6),[3]; out to day 82,more effective than Gemcitabine and also more effective than the combination of gemcitabine and Abraxane®
same,% Gemcitabine released in PBS,[4]; 0 h,0%
same,% Gemcitabine released in PBS,[4]; 0.08 h,3.95%
same,% Gemcitabine released in PBS,[4]; 2 h,11.23%
same,% Gemcitabine released in PBS,[4]; 4 h,16.6%
same,% Gemcitabine released in PBS,[4]; 6 h,21.99%
same,% Gemcitabine released in PBS,[4]; 8 h,25.64%
same,% Gemcitabine released in PBS,[4]; 10 h,30.03%
same,% Gemcitabine released in PBS,[4]; 12 h,33.17%
same,% Gemcitabine released in PBS,[4]; 24 h,46.36%
same,% Gemcitabine released in PBS,[4]; 26 h,48.07%
same,% Gemcitabine released in PBS,[4]; 28 h,51.24%
same,% Gemcitabine released in PBS,[4]; 30 h,53.41%
same,% Gemcitabine released in PBS,[4]; 32 h,54.48%
same,% Gemcitabine released in PBS,[4]; 34 h,55.8%
same,% Gemcitabine released in PBS,[4]; 36 h,57.52%
same,GI50,[5],0.077 µM
same,GI50,[6],0.008 µM
same,anti-tumour efficacy compared to other groups (FIG. 7),[7],significantly more effective than Gemcitabine or 6

# — patent publication US12616711B2, “Therapeutic dendrimer” (Starpharma Pty Ltd, priority 2019, dated 2026)
